The source of these data is patent publication US8480647B2, “Delivery device for delivering bioactive agents to internal tissue in a body” (Bioprotect Ltd., priority 2007, dated 2013).

The nature of data set [1]: Release from L-PLA-co PEG5000 hydrogel-wall balloons in aqueous media. The settings on record: 1 cm balloons of L-PLA-co PEG5000 triblock or 50:50 mixture with L-PLA, 200 and 300 micron wall thicknesses. The format is physicochemical. Here is the method:
In a similar experiment, biodegradable balloons of 1 cm diameter were prepared from triblock copolymers of L-PLA-co PEG5000, Mw=80,000 or in a 50:50 mixture with L-PLA Mw=120,000 by the solvent casting on a gelatin mold method. Balloons with 200 and 300 micron wall thicknesses were prepared. These balloons swell when inserted in aqueous media to form hydrogel walls which are permeable to water soluble molecules.

A short description of data set [2]: Release of loaded agents from poly(caprolactone-L-lactide)/PEG porogen balloons. The format is physicochemical. To be noted: for period of constant release from balloon: loaded with 10% w/v solution. Here is the method: In a typical experiment, dichloromethane solutions of poly(caprolactone-L-lactide) 70:30 w/w, Mw=100,000 and polyethylene glycol Mw=400 (PEG400) and PEG2000 mixed at a 1, 5, 10 and 20 w/w % per polymer were used for producing balloons by dipping as described above. The balloons were immersed in water to allow the leach-out of the water soluble PEG. The balloons were analyzed for pore size, uniformity of pores throughout the membrane, and diffusion of LHRH hormone and BSA (bovine serum albumin) as representative protein. Uniform micron size holes of a similar size were generated for the 1 and 5% PEG but more holes for the 5%, while the 20% PEG generated much larger holes throughout the wall which also affects the strength of the wall. […] The balloon remain inflated for about 4 months in 0.1M phosphate buffer solution at 37° C. before signs of degradation occur measured by a significant decrease in molecular weight and change in the flexibility and clarity of the balloons. In a continuation experiment, lyophilized powder of LHRH (10 mg) on dextrose (100 mg) was dispersed in glycerol (100 mg) and injected into the 10 mm diameter balloon and release under physiological conditions was determined.

For the compound `O=c1[nH]cc(F)c(=O)[nH]1` [5-FU], in data set [1], the “release from hydrogel-wall balloons” value is reported as “constantly release at high amounts for weeks”. The “release behaviour in comparison with the other loaded agents” value in data set [2] (poly(caprolactone-L-lactide)/PEG balloons) is reported as “released much faster for a shorter time period at a zero order profile”.
As to `CN(Cc1cnc2nc(N)nc(N)c2n1)c1ccc(C(=O)N[C@@H](CCC(=O)O)C(=O)O)cc1` [methotrexate], the “release from hydrogel-wall balloons” value in data set [1] is on record as “constantly release at high amounts for weeks”.
Turning to “LHRH: LHRH hormone, therapeutic peptide loaded in the balloon”, in data set [1], the “release from hydrogel-wall balloons” value was “released at low concentrations over time”. Further, the “period of constant release from balloon” value in data set [2] (5% PEG balloons of poly(caprolactone-L-lactide) 70:30) was “a few months”; in data set [2] (20% PEG balloons of poly(caprolactone-L-lactide) 70:30), “weeks”. The “release of native LHRH from balloon, determined by HPLC” value in data set [2] (lyophilized LHRH (10 mg) on dextrose (100 mg) dispersed in glycerol (100 mg), 10 mm diameter balloon, physiological conditions) is “constantly released for weeks”.
